In US20220333113:
Numbering of substitutions follows the chain as printed.

What was measured:
Test in all cases: filter
Details in all cases: J = PPdU at every J; SB18T0.01 + 1 mM DTT, 37 C
[1] = target: T1, RIG-I D872A (Homo sapiens) (UniProt O95786)
T1 sequence: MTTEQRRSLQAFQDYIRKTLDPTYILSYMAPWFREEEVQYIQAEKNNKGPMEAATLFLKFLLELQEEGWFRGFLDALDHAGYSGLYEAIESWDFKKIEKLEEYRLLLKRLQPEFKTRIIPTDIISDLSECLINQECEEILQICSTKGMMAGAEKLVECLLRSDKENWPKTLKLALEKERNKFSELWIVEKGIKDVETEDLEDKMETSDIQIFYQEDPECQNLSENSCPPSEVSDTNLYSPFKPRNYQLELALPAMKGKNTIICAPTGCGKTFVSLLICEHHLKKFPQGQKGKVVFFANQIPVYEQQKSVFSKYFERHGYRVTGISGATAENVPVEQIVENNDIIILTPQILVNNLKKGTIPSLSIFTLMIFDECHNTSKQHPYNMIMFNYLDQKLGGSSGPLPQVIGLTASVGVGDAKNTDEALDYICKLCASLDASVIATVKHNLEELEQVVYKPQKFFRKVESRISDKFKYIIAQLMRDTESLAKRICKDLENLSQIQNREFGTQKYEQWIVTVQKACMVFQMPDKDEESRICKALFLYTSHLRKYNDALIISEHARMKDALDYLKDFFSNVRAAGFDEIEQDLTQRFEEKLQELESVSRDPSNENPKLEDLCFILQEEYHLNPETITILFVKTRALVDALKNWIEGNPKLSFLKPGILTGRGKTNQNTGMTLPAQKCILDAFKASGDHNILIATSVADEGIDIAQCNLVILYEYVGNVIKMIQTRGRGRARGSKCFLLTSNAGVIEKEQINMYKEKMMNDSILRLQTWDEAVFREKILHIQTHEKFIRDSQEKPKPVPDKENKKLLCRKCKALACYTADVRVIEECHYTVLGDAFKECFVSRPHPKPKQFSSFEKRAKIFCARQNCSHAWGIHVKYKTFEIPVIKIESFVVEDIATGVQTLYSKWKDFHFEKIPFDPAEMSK

[2] = target: T2, RIG-I R664A (Homo sapiens) (UniProt O95786)
T2 sequence: T1 sequence with R664A, A872D

[3] = target: T3, RIG-I WT full-length (Homo sapiens) (UniProt O95786)
T3 sequence: T1 sequence with A872D

## ATCTCTGTGTCATGTGTTTTAATGTCAGTTTAATGATGAGG [14832-55_8]
[1]
  Kd: 610 pM
[2]
  Kd: 410 pM
[3]
  Kd: 560 pM
